From US20240052052A1 (published 2024) come the findings set out here.

The target of test [1] is T1, Human CD24-mFc (human, UniProt P25063 27-59).
T1 chain: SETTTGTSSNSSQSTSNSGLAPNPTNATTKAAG
Kind of test: SPR (BIAcore); hIgG4. In general terms: SPR reads the build-up and loss of mass on a sensor chip optically.

Test [2] deals with T2, human CD24 (human, UniProt P25063 27-59, heavily glycosylated, GPI-anchored (as described in the background)).
T2 chain: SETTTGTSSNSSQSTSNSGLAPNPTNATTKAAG
Kind of test: FACS binding; MCF7 cells.

The target of test [3] is T1, Human CD24-mFc. Kind of test: BLI (Gatorprime).
For test [4], the target named is T1, Human CD24-mFc. Kind of test: SPR (BIAcore); hIgG1.
For test [5], the target named is T2, human CD24. The test is described as follows: FACS binding; DoHH2 cells. (In general: A flow cytometer gives signals particle by particle.)
Test [6] has as its target T2, human CD24. Kind of test: FACS binding; Huh7 cells.

B1: ch81A1F8-hIgG4 (antibody, V domains shown)
VH: EVQLQQSGPELVKPGASVKISCKATGYLFTGYYMNWVKQSPEKSLEWIGEINPNTGDTNNNQKFKAKATMTVDRSSSTAYMQLKRLTSEDSAVYYCVRRDYGTSLDYWGQGTTLTVSS
VL: DVQITQSPSYLAASPGETITINCRASKSINKYLAWYQEKPGKTNKLLIHSGSTLQSGIPSRFSGSRSGTDFTLTISNLEPEDFAMYYCQQHNEYPITFGAGTKLELK
As usually defined, the Kd is the constant that tells how readily two partners part at equilibrium. For orientation: EC50 means the concentration at which the effect is half-maximal. A low value points to a more potent agent. For the molecule B1, the results for the Kd with Human CD24-mFc [1] and in the test with Human CD24-mFc [3] were 2.23 nM and 0.241 nM, respectively. The molecule further gave a 50% effective concentration (EC50) with human CD24 [2] of 4.09 nM.

B2: 81A1F8-hIgG1 (antibody, V domains shown)
VH: EVQLQQSGPELVKPGASVKISCKATGYLFTGYYMNWVKQSPEKSLEWIGEINPNTGDTNNNQKFKAKATMTVDRSSSTAYMQLKRLTSEDSAVYYCVRRDYGTSLDYWGQGTTLTVSS
VL: DVQITQSPSYLAASPGETITINCRASKSINKYLAWYQEKPGKTNKLLIHSGSTLQSGIPSRFSGSRSGTDFTLTISNLEPEDFAMYYCQQHNEYPITFGAGTKLELK
B2 yielded a Kd in the test with Human CD24-mFc [4] of 2.29 nM.

B3: SN3 (antibody, V domains shown)
VH: QVQLKESGPGLVAPSQSLSITCTVSGFSLTSYGVHWVRQPPGKGLEWLGVIWAGGSTNYNSALMSRLSISKDNSKSQVFLKMNSLQTDDTAMYYCAVYYGYLFFAYWGQGTLVTVSA
VL: ENVLTQSPAIMSASPGEKVTMTCSASSSVSYMHWYQQKSTTSPKLWIYDTSKLASGVPGRFSGSGSGNSYSLTISSMEAEDVATYYCFQGSGYPLTFGGGTKLEIK
B3 came in with an EC50 in the test with human CD24 [5] of 1.87 nM.

B4: 101H9G9A2-hIgG (antibody, V domains shown)
VH: QVQLLQPGAELVRPGSSVKLSCKASDYTFTSYWMDWVKQRPGQGLEWIGNIYPSDSKTHYNQKFKDKATLTVDKSSSTAYMQLNSLTSEDSAVYYCARRGGYYAYAMDYWGQGTSVTVSS
VL: DIVMTQSPSSLSVSAGEKVTMRCKSSQSLLNSGNQDNYLAWYQQKPGQPPKLLLYGARIRESGVPDRFIGSGSGTDFTLTISSVQAEDLAVYYCQNDHSYPYTFGGGTKVEIK
Take B4: the EC50 is 2.2 nM in the test with human CD24 [2] and 0.815 nM in the test with human CD24 [6].

B5: 107D10D11-hIgG (antibody, V domains shown)
VH: QIQLKQSGPGLVQPSQSLSITCTVSGFSLSSYGVNWVRQSPGKGLEWLGMIWSGGNTDYNAAFISRVSFTKDNSKSQVFFTMNSLQADDTAIYYCARIWYYGMDYWGQGTSVTVSS
VL: DIVMTQSQKFMSTTVGDRVSITCKASQNVGTAVAWFQQKPGQSPKILIYSASIRYPGVPDRFTGSGSGTDFTLTTSNVQSEDLADYFCLQYITFPRTFGGGTKLYIK
For the molecule B5, the EC50 with human CD24 [2] came out at 2.19 nM; in the test with human CD24 [6], 1.39 nM.
